Results published in the RNAGym collection of RNA variant scans (doi:10.1073/pnas.2313332121).

B1: TPR t1 (parent)
chain: GACCAAUCUGCCCUCAGAGCUCGAGAACAUCUUCGGAUGCAGAGGAGGCAGGCUUCGGUGGCGCGAUAGCGCCAACGUCCUCAACCUCCAAUGCAUCCCACCACAUGAUGAUGCCUGAAGAGCCUUGGUUUUUUG

Variants of: B1
Assay: polymerase ribozyme fitness, log enrichment relative to wild type (log ratio); higher = more active; in vitro selection for triplet polymerase activity
In short: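 Mutant libraries were PCR-built and transcribed for each subunit of a heterodimeric triplet polymerase ribozyme and selected for one round in triplicate at −7 °C, frozen, before gel excision of extended constructs and streptavidin-bead capture. Input and output libraries were Illumina-sequenced, keeping genotypes with ≥10 input reads and ≥1 read per output. Fitness is a logarithmic ratio of genotype to wild-type enrichment, in base 2, using inverse-variance-weighted replicate averages.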

| Variant | polymerase ribozyme fitness (log ratio) |
| --- | --- |
| C99G G120A | -7.03 |
| A26G G48A C53G C89U A91C | -4.13 |
| G57U C79A G93C U112G | -2.9 |
| C34U G61A | -4.7 |
| G48C C56U G77A G110A | -2.29 |
| C56A C104A A105U G110A | -7.24 |
| U9G A18C C56G C72A | -3.47 |
| C11A U21A C40U G47A C49A G57A G58C G61U | -5.81 |
| C28A G48U C53U G57C G60A U106C | -5.56 |
| G42C C88U U106A A121C U125A | -1.81 |
| C3A G45U G57U C82U C104A C123A | -4.01 |
| C64A U78C | -6.04 |
| C34A C40U C49A C62U U96G | -5.57 |
| C123U C124A | 2.14 |
| G35U C70U C73A | -7.04 |
| C13U A27U G42U C64G A100C G120C C123G | -7.95 |
| A29G A74U | -1.73 |
| A5C C22A | -4.57 |
| U87G U106G | -1.41 |
| A6U C22U | -3.04 |
| G42C G127A | -2.97 |

| Variant | polymerase ribozyme fitness (log ratio) |
| --- | --- |
| C82A G93C C97U G113U | -4.46 |
| C15A A66G U81C | -4.15 |
| A46U C70U C79G U130C | -4.73 |
| G63U G69C | -4.76 |
| G42A U106C | -2.12 |
| G17A A43U C73G G120A | -3.38 |
| U30G A95C U96C A105U A111C G120C | -6.71 |
| C3A U9G G17C U54G G69U A105C G117A | -5.55 |
| G47U U54A G120A | -0.309 |
| G47C C56A G110U | -5.35 |
| A16U G47C G71U | -4.17 |
| U21A G39U G48A A74U U78G | -2.09 |
| U9A C72U C123G U134G | 2.67 |
| U78A A95C G113U U125G | -4.39 |
| G48U G61U C88U G110A | -1.73 |
| C11A G107A | -5.12 |
| C4U U9G A24U G57C G58U A84G C85A C114G C123G | -7.47 |
| C49A U55G A74C U81G A90G G117U | -2.62 |
| A5C G45U C73G U81C G120A G122U | -3.02 |
| U14G G44C C86U C89U G120A | -2.75 |
| C3A U14G C62A A119U G120A | -2.14 |

| Variant | polymerase ribozyme fitness (log ratio) |
| --- | --- |
| A6G G48U U54A C79U U87A | -4.01 |
| C8A G60U | -0.464 |
| A16C C56G G77U C115G | -3.78 |
| C13U C72U C94G | -1.35 |
| C64G C89U C123U | -5.79 |
| U78G G120A | 0.634 |
| C13G G57C C73A G110A | -2.44 |
| A75G C97U U131A | -0.00214 |
| C53A G93C | -0.396 |
| G39A C79A C114G A121C | -4.29 |
| G39A C49U G57A A84U C97U G120C C124U G128U U132A | -2.74 |
| G117C A121G U130C | 0.325 |
| G61U U78C C89G | -1.23 |
| G39U C53G U116C | -2.62 |
| C11U G71A C98U A105U G110U G122U C124A | -7.92 |
| G60A G113C G135U | -5.16 |
| A41U G63A U78A A83U | -4.53 |
| C88U C94U | -1.32 |
| C89A A121G | 1.44 |
| C89G A90G G127C | -2.22 |
| A5G U54G C88A | -0.448 |

| Variant | polymerase ribozyme fitness (log ratio) |
| --- | --- |
| C13U G52U G110U U133C | -1.33 |
| U21A G39U C62A | -2.62 |
| G52U C73G A84U | -1.78 |
| A119U A121U | 1.77 |
| A37G C73A C82A A83G | -2.53 |
| C3G A6C C49A C53U G61C C97U C101U | -3.42 |
| C49U G113U G117U | -5.67 |
| A43C C62U U87G C88G A90C G127C U132C | -3.94 |
| A5U C70U C89U G110U | -2.97 |
| G25C A119G | -6.74 |
| C3U G10U A26U U55C G69U U112C | -3.58 |
| C15U G113U | -3.92 |
| C49G G127A | -1.65 |
| C11U A74C A111U | -3.83 |
| G10U A26U G39C C89U | -5.19 |
| C15U G120A | -1.08 |
| G69U C123A | 1.34 |
| C12G G45A G107U | -5.21 |
| U21C C101A | -0.445 |
| A46C G58C U59A C88G | -2.01 |
| G44C C53U C86A A95U C101U | -3.19 |
